Test [1] deals with PDGFRα-V242K (UniProt P16234).
Test [2] deals with HCMV gH/gL/gO complex (strain TR; gO allele gO1b) (human cytomegalovirus (HCMV) strain TR).
The target of test [3] is PDGFRα-V242K (UniProt P16234). The source holds these as a separate data set.

On to “HCMV gH/gL/gO complex with gO allele gO2a”, for which the rate of gH/gL/gO-PDGFRα-dependent cell–cell fusion, as percent of parental gO1b (% of parental gO1b) with PDGFRα-V242K [1] stood at 112. Take “soluble PDGFRα-FC (from UniProt P16234 24-528) (Fc fusion)”: the inhibition of the rate of gH/gL/gO-PDGFRα-dependent cell–cell fusion (pair that is blocked: m1 and m2) in test [2] is 2.5 fold. On to “HCMV gH/gL/gO complex with gO allele gO1c”, for which, in the test with PDGFRα-V242K [1], the rate of gH/gL/gO-PDGFRα-dependent cell–cell fusion, as percent of parental gO1b (% of parental gO1b) stood at 107. On the same count and under the same terms, next, “HCMV gH/gL/gO complex with gO allele gO1a”: 83.

The substance “HCMV gH/gL/gO complex (strain TR; gO allele gO1b)” yielded a rate of gB-mediated cell–cell fusion (split luciferase, live cells); ARPE19 target cells with PDGFRα against those without in the test with PDGFRα-V242K [3] above 100 fold.

The values are drawn from paper PMC12090739.
